B1: EHEE_rd4_0726 (parent)
chain: DIEITTNGEEDAKRVIKELQKRNLEYHIEVHGNQWVIKVR

Variants of: B1
Assay: folding stability dG (cDNA display proteolysis); higher = more stable
Details: PBS, room temperature

Row | Variant | folding stability dG
1 | DIEITTNGEEDAKRVIKELQKRNAEYHIEVHGNQWVIKVR | 1.7 kcal/mol
2 | DIEITTNGEEDAKRVIKELQKRNFEYHIEVHGNQWVIKVR | 1.81 kcal/mol
3 | DIEITTNGEEDAKRVIKEHQKRNLEYHIEVHGNQWVIKVR | -0.603 kcal/mol
4 | DIEITTNGEEDAKRVIKEYQKRNLEYHIEVHGNQWVIKVR | 0.81 kcal/mol
5 | DIEITTNGEEDAKRVIKEFQKRNLEYHIEVHGNQWVIKVR | 1.38 kcal/mol
6 | DIEITTNGEEDAKRVIKETQKRNLEYHIEVHGNQWVIKVR | -0.334 kcal/mol
7 | DIEITTNGEEDAKRVIKECQKRNLEYHIEVHGNQWVIKVR | 1.59 kcal/mol
8 | DIEITTNGEEDAKRVIKEMQKRNLEYHIEVHGNQWVIKVR | 1.32 kcal/mol
9 | DIEITTNGEEDAKRVIKEKQKRNLEYHIEVHGNQWVIKVR | -0.438 kcal/mol
10 | DIEITTNGEEDAKRVIKEWQKRNLEYHIEVHGNQWVIKVR | 0.45 kcal/mol
11 | DIEITTNGEEDAKRVIKEIQKRNLEYHIEVHGNQWVIKVR | 1.56 kcal/mol
12 | DIEITTNGEEDAKRVIKEVQKRNLEYHIEVHGNQWVIKVR | 0.98 kcal/mol
13 | DIEITTNGEEDAKRVIKEAQKRNLEYHIEVHGNQWVIKVR | 0.721 kcal/mol
14 | DIEITTNGEEDAKRVIKELQGRNLEYHIEVHGNQWVIKVR | 1.86 kcal/mol
15 | DIEITTNGEEDAKRVIKELQFRNLEYHIEVHGNQWVIKVR | 2.25 kcal/mol
16 | DIEITTNGEEDAKRVIKELQRRNLEYHIEVHGNQWVIKVR | 2.75 kcal/mol
17 | DIEITTNGEEDAKRVIKELQNRNLEYHIEVHGNQWVIKVR | 2.21 kcal/mol
18 | DIEITTNGEEDAKRVIKELQSRNLEYHIEVHGNQWVIKVR | 2.3 kcal/mol
19 | DIEITTNGEEDAKRVIKELQARNLEYHIEVHGNQWVIKVR | 2.54 kcal/mol
20 | DIEITTNGEEDAKRVIKELQDRNLEYHIEVHGNQWVIKVR | 2.3 kcal/mol
21 | DIEITTNGEEDAKRVIKELQPRNLEYHIEVHGNQWVIKVR | 0.042 kcal/mol

Row | Variant | folding stability dG
22 | DIEITTNGEEDAKRVIKELQVRNLEYHIEVHGNQWVIKVR | 1.91 kcal/mol
23 | DIEITTNGEEDAKRVIKELQLRNLEYHIEVHGNQWVIKVR | 2.65 kcal/mol
24 | DIEITTNGEEDAKRVIKELQWRNLEYHIEVHGNQWVIKVR | 2.04 kcal/mol
25 | DIEITTNGEEDAKRVIKELQERNLEYHIEVHGNQWVIKVR | 2.44 kcal/mol
26 | DIEITTNGEEDAKRVIKELQYRNLEYHIEVHGNQWVIKVR | 2.08 kcal/mol
27 | DIEITTNGEEDAKRVIKELQIRNLEYHIEVHGNQWVIKVR | 2.19 kcal/mol
28 | DIEITTNGEEDAKRVIKELQMRNLEYHIEVHGNQWVIKVR | 2.51 kcal/mol
29 | DIEITTNGEEDAKRVIKELQTRNLEYHIEVHGNQWVIKVR | 1.91 kcal/mol
30 | DIEITTNGEEDAKRVIKELQHRNLEYHIEVHGNQWVIKVR | 2.02 kcal/mol
31 | DIEITTNGEEDAKRVIKELQQRNLEYHIEVHGNQWVIKVR | 2.23 kcal/mol
32 | DIEITTNGEEDAKRVIKELQKYNLEYHIEVHGNQWVIKVR | 2.62 kcal/mol
33 | DIEITTNGEEDAKRVIKELQKNNLEYHIEVHGNQWVIKVR | 1.97 kcal/mol
34 | DIEITTNGEEDAKRVIKELQKENLEYHIEVHGNQWVIKVR | 1.49 kcal/mol
35 | DIEITTNGEEDAKRVIKELQKQNLEYHIEVHGNQWVIKVR | 2.45 kcal/mol
36 | DIEITTNGEEDAKRVIKELQKWNLEYHIEVHGNQWVIKVR | 2.65 kcal/mol
37 | DIEITTNGEEDAKRVIKELQKKNLEYHIEVHGNQWVIKVR | 2.17 kcal/mol
38 | DIEITTNGEEDAKRVIKELQKLNLEYHIEVHGNQWVIKVR | 2.88 kcal/mol
39 | DIEITTNGEEDAKRVIKELQKTNLEYHIEVHGNQWVIKVR | 1.51 kcal/mol
40 | DIEITTNGEEDAKRVIKELQKANLEYHIEVHGNQWVIKVR | 2.25 kcal/mol
41 | DIEITTNGEEDAKRVIKELQKPNLEYHIEVHGNQWVIKVR | 0.049 kcal/mol
42 | DIEITTNGEEDAKRVIKELQKVNLEYHIEVHGNQWVIKVR | 1.45 kcal/mol

Row | Variant | folding stability dG
43 | DIEITTNGEEDAKRVIKELQKCNLEYHIEVHGNQWVIKVR | 2.62 kcal/mol
44 | DIEITTNGEEDAKRVIKELQKFNLEYHIEVHGNQWVIKVR | 2.39 kcal/mol
45 | DIEITTNGEEDAKRVIKELQKMNLEYHIEVHGNQWVIKVR | 2.66 kcal/mol
46 | DIEITTNGEEDAKRVIKELQKGNLEYHIEVHGNQWVIKVR | 1.45 kcal/mol
47 | DIEITTNGEEDAKRVIKELQKSNLEYHIEVHGNQWVIKVR | 1.76 kcal/mol
48 | DIEITTNGEEDAKRVIKELQKHNLEYHIEVHGNQWVIKVR | 2.33 kcal/mol
49 | DIEITTNGEEDAKRVIKELQKDNLEYHIEVHGNQWVIKVR | 1.33 kcal/mol
50 | DIEITTNGEEDAKRVIKELQKINLEYHIEVHGNQWVIKVR | 1.54 kcal/mol
51 | DIEITTNGEEDAKRVITELQKRNLEYHIEVHGNQWVIKVR | 2.15 kcal/mol
52 | DIEITTNGEEDAKRVIMELQKRNLEYHIEVHGNQWVIKVR | 2.64 kcal/mol
53 | DIEITTNGEEDAKRVIHELQKRNLEYHIEVHGNQWVIKVR | 2.26 kcal/mol
54 | DIEITTNGEEDAKRVINELQKRNLEYHIEVHGNQWVIKVR | 2.05 kcal/mol
55 | DIEITTNGEEDAKRVIYELQKRNLEYHIEVHGNQWVIKVR | 2.43 kcal/mol
56 | DIEITTNGEEDAKRVIIELQKRNLEYHIEVHGNQWVIKVR | 2.46 kcal/mol
57 | DIEITTNGEEDAKRVIRELQKRNLEYHIEVHGNQWVIKVR | 2.7 kcal/mol
58 | DIEITTNGEEDAKRVISELQKRNLEYHIEVHGNQWVIKVR | 2.31 kcal/mol
59 | DIEITTNGEEDAKRVILELQKRNLEYHIEVHGNQWVIKVR | 2.74 kcal/mol
60 | DIEITTNGEEDAKRVIPELQKRNLEYHIEVHGNQWVIKVR | 0.05 kcal/mol
61 | DIEITTNGEEDAKRVIVELQKRNLEYHIEVHGNQWVIKVR | 2.29 kcal/mol
62 | DIEITTNGEEDAKRVIWELQKRNLEYHIEVHGNQWVIKVR | 2.36 kcal/mol
63 | DIEITTNGEEDAKRVIQELQKRNLEYHIEVHGNQWVIKVR | 2.46 kcal/mol

Reference: the MegaScale stability set (Tsuboyama et al. 2023)
